Tested on: T1, O=[N+]([O-])c1ccc(OP(=O)(O)O)cc1
T1 construct: printed as 527 residues, 56 kDa; C-terminal factor Xa site and His6 tag; E. coli BL21(DE3) periplasm; monomer
Test: purified protein
Assay type: biochemical, uncultured bacterium
Conditions: 37 °C, pH 9.0, 50 mM DEA, 0.5 mM CaCl2

**Q.** How did the Km turn out when “mAP (metagenome-derived alkaline phosphatase) (uncultured bacterium)” was run?
**A.** 180 µM

**Q.** What about the kcat of the same substance?
**A.** 952 s⁻¹

**Q.** And the kcat/Km?
**A.** 5.3e+06 M⁻¹ s⁻¹

Reference: publication PMC4335783, “A novel psychrophilic alkaline phosphatase from the metagenome of tidal flat sediments” (BMC Biotechnology, 2015)
